Laboratory results published in article PMC4355727.

Biological target: FLAG-tagged Rab32 T39N (UniProt Q13637)
Experiment: co-IP

Sequence of UniProt Q13637 (Q13637 whole entry T39N): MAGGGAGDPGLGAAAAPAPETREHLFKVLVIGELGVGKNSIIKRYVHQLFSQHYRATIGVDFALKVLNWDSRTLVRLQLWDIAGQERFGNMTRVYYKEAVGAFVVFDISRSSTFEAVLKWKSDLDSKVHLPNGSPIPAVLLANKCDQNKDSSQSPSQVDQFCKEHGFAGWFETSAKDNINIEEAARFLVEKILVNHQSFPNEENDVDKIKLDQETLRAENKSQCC

- fraction of the interaction detected with active Rab32 Q85L: 0.25
Substance: HA-tagged Drp1 S656A (natural protein)
